The record followed here is US20150344570A1 (published 2015).

B1: GpH7-A5/GpH7-B3 variant S337_07I/GpL16-k0 (antibody, human IgG1, kappa)
heavy 1: not shown
heavy 2: not shown
light: DIVMTQSPLSLPVTPGEPASISCQASESLVHSNRNTYLHWYLQKPGQSPQLLIYKVSNRFSGVPDRFSGSGSGTDFTLKISRVEAEDVGVYYCSQNTHVPPTFGQGTKVEIERTVAAPSVFIFPPSDEQLKSGTASVVCLLNNFYPREAKVQWKVDNALQSGNSQESVTEQDSKDSTYSLSSTLTLSKADYEKHKVYACEVTHQGLSSPVTKSFNRGEC
notes: also called He Ab S337_07I
B2: GpH7-A5/GpH7-B3 variant Q295_07I/GpL16-k0 (antibody, human IgG1, kappa)
heavy 1: not shown
heavy 2: not shown
light: B1 light
notes: also called He Ab Q295_07I
B3: GpH7-A5/GpH7-B3 variant S298_02A/GpL16-k0 (antibody, human IgG1, kappa)
heavy 1: not shown
heavy 2: not shown
light: B1 light
notes: also called He Ab S298_02A; GpH7-A5/GpH7-B3-15-02A/GpL16-k0
B4: GpH7-A5/GpH7-B3 variant S267_03V/GpL16-k0 (antibody, human IgG1, kappa)
heavy 1: not shown
heavy 2: not shown
light: B1 light
notes: also called He Ab S267_03V
B5: GpH7-A5/GpH7-B3 variant S337_04F/GpL16-k0 (antibody, human IgG1, kappa)
heavy 1: not shown
heavy 2: not shown
light: B1 light
notes: also called He Ab S337_04F
B6: GpH7-A5/GpH7-B3 variant S267_09D/GpL16-k0 (antibody, human IgG1, kappa)
heavy 1: not shown
heavy 2: not shown
light: B1 light
notes: also called He Ab S267_09D
B7: GpH7-A5/GpH7-B3 variant S337_08L/GpL16-k0 (antibody, human IgG1, kappa)
heavy 1: not shown
heavy 2: not shown
light: B1 light
notes: also called He Ab S337_08L
B8: GpH7-A5/GpH7-B3 variant S298_06M/GpL16-k0 (antibody, human IgG1, kappa)
heavy 1: not shown
heavy 2: not shown
light: B1 light
notes: also called He Ab S298_06M
B9: GpH7-A5/GpH7-B3 variant S298_19Q/GpL16-k0 (antibody, human IgG1, kappa)
heavy 1: not shown
heavy 2: not shown
light: B1 light
notes: also called He Ab S298_19Q
B10: GpH7-A5/GpH7-B3 variant S337_09D/GpL16-k0 (antibody, human IgG1, kappa)
heavy 1: not shown
heavy 2: not shown
light: B1 light
notes: also called He Ab S337_09D
B11: GpH7-A5/GpH7-B3 variant S324_16H/GpL16-k0 (antibody, human IgG1, kappa)
heavy 1: not shown
heavy 2: not shown
light: B1 light
notes: also called He Ab S324_16H
B12: GpH7-A5/GpH7-B3 variant S337_10E/GpL16-k0 (antibody, human IgG1, kappa)
heavy 1: not shown
heavy 2: not shown
light: B1 light
notes: also called He Ab S337_10E
B13: GpH7-A5/GpH7-B3 variant S298_08L/GpL16-k0 (antibody, human IgG1, kappa)
heavy 1: not shown
heavy 2: not shown
light: B1 light
notes: also called He Ab S298_08L
B14: GpH7-A5/GpH7-B3 variant Q295_14T/GpL16-k0 (antibody, human IgG1, kappa)
heavy 1: not shown
heavy 2: not shown
light: B1 light
notes: also called He Ab Q295_14T
B15: GpH7-A5/GpH7-B3 variant S337_01G/GpL16-k0 (antibody, human IgG1, kappa)
heavy 1: not shown
heavy 2: not shown
light: B1 light
notes: also called He Ab S337_01G
B16: GpH7-A5/GpH7-B3 variant S324_20W/GpL16-k0 (antibody, human IgG1, kappa)
heavy 1: not shown
heavy 2: not shown
light: B1 light
notes: also called He Ab S324_20W
B17: GpH7-A5/GpH7-B3 variant S324_15Y/GpL16-k0 (antibody, human IgG1, kappa)
heavy 1: not shown
heavy 2: not shown
light: B1 light
notes: also called He Ab S324_15Y
B18: GpH7-A5/GpH7-B3 variant S324_14T/GpL16-k0 (antibody, human IgG1, kappa)
heavy 1: not shown
heavy 2: not shown
light: B1 light
notes: also called He Ab S324_14T
B19: GpH7-A5/GpH7-B3 variant S267_01G/GpL16-k0 (antibody, human IgG1, kappa)
heavy 1: not shown
heavy 2: not shown
light: B1 light
notes: also called He Ab S267_01G
B20: GpH7-A5/GpH7-B3 variant Q295_13S/GpL16-k0 (antibody, human IgG1, kappa)
heavy 1: not shown
heavy 2: not shown
light: B1 light
notes: also called He Ab Q295_13S
B21: GpH7-A5/GpH7-B3 variant S298_07I/GpL16-k0 (antibody, human IgG1, kappa)
heavy 1: not shown
heavy 2: not shown
light: B1 light
notes: also called He Ab S298_07I
B22: GpH7-A5/GpH7-B3 variant Q295_08L/GpL16-k0 (antibody, human IgG1, kappa)
heavy 1: not shown
heavy 2: not shown
light: B1 light
notes: also called He Ab Q295_08L
B23: GpH7-A5/GpH7-B3 variant S324_02A/GpL16-k0 (antibody, human IgG1, kappa)
heavy 1: not shown
heavy 2: not shown
light: B1 light
notes: also called He Ab S324_02A
B24: GpH7-A5/GpH7-B3 variant S298_14T/GpL16-k0 (antibody, human IgG1, kappa)
heavy 1: not shown
heavy 2: not shown
light: B1 light
notes: also called He Ab S298_14T
B25: GpH7-A5/GpH7-B3 variant S298_01G/GpL16-k0 (antibody, human IgG1, kappa)
heavy 1: not shown
heavy 2: not shown
light: B1 light
notes: also called He Ab S298_01G
B26: GpH7-A5/GpH7-B3 variant S239_18N/GpL16-k0 (antibody, human IgG1, kappa)
heavy 1: not shown
heavy 2: not shown
light: B1 light
notes: also called He Ab S239_18N
B27: GpH7-A5/GpH7-B3 variant S324_03V/GpL16-k0 (antibody, human IgG1, kappa)
heavy 1: not shown
heavy 2: not shown
light: B1 light
notes: also called He Ab S324_03V

T1 sequence (P12314 16-292): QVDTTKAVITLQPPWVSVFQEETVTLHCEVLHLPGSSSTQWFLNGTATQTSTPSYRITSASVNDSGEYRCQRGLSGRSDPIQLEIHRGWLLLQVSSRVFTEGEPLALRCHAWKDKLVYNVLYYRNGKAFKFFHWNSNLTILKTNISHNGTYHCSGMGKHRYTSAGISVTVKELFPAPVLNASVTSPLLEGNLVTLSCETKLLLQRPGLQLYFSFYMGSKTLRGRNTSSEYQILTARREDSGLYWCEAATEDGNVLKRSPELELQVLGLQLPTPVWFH

This test concerns the target T1, FcγRIa (human, UniProt P12314 16-292).
T1 construct: extracellular domain; Soluble extracellular domain expressed in FreeStyle293 cells, used as analyte in Biacore; also called FcgRI; 1a; not shown: His tag attached to the C terminus
Nature of the test: SPR (Biacore); He Ab vs HeCon Ab GpH7-A5/GpH7-B3/GpL16-k0. How it is done:
Analysis of interaction between objective antibody and the FcγR was carried out using Biacore T100 (GE Healthcare). HBS-EP+ (GE Healthcare) was used as the running buffer, and the measurement temperature was set to 25° C. Chips produced by immobilizing the antigen peptide by the amine coupling method to a Series S Sencor Chip CM5 (GE Healthcare), or alternatively, chips produced by allowing preliminarily biotinylated antigen peptides to interact with and immobilize onto a Series S Sensor Chip SA (certified) (GE Healthcare) were used. Antibodies of interest were captured onto an antigen peptide-immobilized chip, and allowed to interact to each FcγR diluted with running buffer. To regenerate and repeatedly use the chip, the antibodies captured on the chip were washed off by reacting 10 mM glycine-HCl, pH 1.5.
(SPR reads the build-up and loss of mass on a sensor chip optically.)
For the molecule B1, the He/Con_1a was 105 relative binding, control = 100.
Take B2: the He/Con_1a is 103 relative binding, control = 100.
With B3 the figure was 107 relative binding, control = 100.
In the case of B4, the He/Con_1a was 106 relative binding, control = 100.
Consider B5, for which the He/Con_1a was 106 relative binding, control = 100.
As to B6, the He/Con_1a is 110 relative binding, control = 100.
In the case of B7, the He/Con_1a was 105 relative binding, control = 100.
For the molecule B8, the He/Con_1a is 114 relative binding, control = 100.
For B9, the He/Con_1a was 109 relative binding, control = 100.
Turning to B10, the He/Con_1a is 106 relative binding, control = 100.
As to B11, the He/Con_1a was 113 relative binding, control = 100.
B12: the He/Con_1a was 106 relative binding, control = 100.
Consider B13, for which the He/Con_1a is 107 relative binding, control = 100.
B14: the He/Con_1a is 103 relative binding, control = 100.
With B15 the figure was 107 relative binding, control = 100; with B16, 114 relative binding, control = 100.
As for B17, the He/Con_1a was 114 relative binding, control = 100.
Turning to B18, the He/Con_1a is 121 relative binding, control = 100.
Take B19: the He/Con_1a is 103 relative binding, control = 100.
For B20, the He/Con_1a is 102 relative binding, control = 100.
As for B21, the He/Con_1a is 107 relative binding, control = 100.
For the molecule B22, the He/Con_1a is 105 relative binding, control = 100.
Turning to B23, the He/Con_1a is 103 relative binding, control = 100.
B24: the He/Con_1a is 107 relative binding, control = 100.
Regarding B25, the He/Con_1a was 104 relative binding, control = 100.
In the case of B26, the He/Con_1a is 101 relative binding, control = 100.
For B27, the He/Con_1a was 104 relative binding, control = 100.
